Test: soluble on expression in E. coli; label from the status in PepcDB or PDB records

| Sequence | soluble on expression in E. coli |
| --- | --- |
| MVNKEHFSKKFDADLEEIRTRVLQMGGLVEEQIKNAIEALTEGNEHMIEQVIDNDHRVNAMEVKIDELCSQIIVRRQPTAIDLRMIMTVINTITDLERIGDEAAKIARMAKLIYAADRMYTPRFVEIRHIAAIAMDMLRKALDAFARVDPNASAEIVRQDEQVDEEFRSIIRHLVTFMMEDPRKISTAIEILFAAKAVERIGDHAKNMSEYVVYMVKGKDVRHVSADEIEREVGK | not soluble |
| MTTMPQRESTIAVPDDRRKQLGAFLRARRESLDPQRLGLPRVGRRRTPGLRREEVAMLADVGVTWYTWLEQGREVNPSEAVLVGVANALQCSPLETRHLFVLAGLTPPEATQVTVCEGISPGTRRMLDSLMPQPASIQKPNFDIVAWNDSFCRLMGIDFATLPEEDRNCIYLYLTHETWRSRIENRDVLPTFVSYFRAAMAEHRGDPAWENKLARFFAASSEFEALWHQRYEVRGVENQIKHFNHPQLGRFSLQQMYWYSAPRNGSRLLVYLPMDEAGEQALAWLDQH | not soluble |
| MGSDKIHHHHHHMDNLLSIKSLCDEDIDFVTEISRKEGFAPGVGDLRIYQNTDKQGLWVGWLDNNPIGCIAGVRYNQYYGFLGLFLVIEEYRGRGFGLQLWKKALSHLSDLPCVGLEAAPERITDYSKWGFTISSKTTRWQLLGDGKLVEEYSKNDDFDDFSFVEGSSIPQDAVKKFDEKRETTPRPHFLSNWLNHPAGKVIAVIDKKNCCHGFGRIRPCLLQNGDGWRIGPLMADTPMLLQILLKKLIESHPGLIIIDAPGLNKSASEVFRKLGFKSESETFRMYRGSQPPVSMNDVYGLACLELG | not soluble |
| MAKPVVIGSRSFRTQSSALDHYKALLHRYQDGQRIADPADHTDLVALIERFDPVLDAVGEPAKGAGQIAHFERRLNTGIGWSTPGFWVVRQDGTETDFSYIDAVKGRPKGRSQDFYNACRQAVALDLVLAKKQAFAQYGDDQGRVECELTGKMVTIDDAHLDHAWPYFSHMVSGFRAARGWSRDIPDGIVSTPADGQTTATFLDSAVTEAFRAFHHDQAVLRVLSREANLQTASSARRPKVARPVRLALEHHHHHH | soluble |
| MGSDKIHHHHHHMNIVTLISWDFKRNNESFQRAIINGYDYWSRILDDHGVEKYVILLTCNRVELYYRGDPFDVQEKGYNIISDDMAINHLFHVAAGLDSMSIGENEVLKQVKQAYEKSSSMGKSDKFLSLIFQRAISVGKLVRSKTGIGKGKVSIPSIVYDIVRKNGGNKILLVGNGMLASEIAPYFSYPQYKVTVAGRNIDHVRAFAEKYEYEYVLINDIDSLIKNNDVIITATSSKTPIVEERSLMPGKLFIDLGNPPNIERGNNVITLDEIYEISKKNEMLREEKINQAEILIENEMKATMNKIKDLMIDDIFSQFYRFASVVQTMEIQKFRKMHPEVNENDLEALAHSIINKILNVPVTTLKAVSRSQGNSDFNRLFESFSSNFNDIVSAALQSYEGLRDTQSLRDRTRQLLQKS | not soluble |
| MGSDKIHHHHHHMTNLVTLENVSVAFGQRRVLSDISLALTPGKILTLLGPNGAGKSTLVRVVLGLVAPTEGVIKRDARLRIGYVPQKLHLDATLPLTVSRFLRLRPGTRKDDILPALKRVQAGHLIDAPMQKLSGGETQRVLLARALLNRPQLLVLDEPTQGVDVNGQVALYDLINQLRHELDCAVLMVSHDLHLVMAKTDEVLCLNQHICCSGAPEVVSMHPEFISMFGPRGAEQLGIYRHHHNHRHDLQGRIVLRRGNSR | not soluble |
| GAGAYAYKTIKEDQKRYNERVMGLGLSPEEKQRRAIASATEGGSVPQIRAPSHVPFLLIGGGTAAFAAARSIRARDPGARVLIVSEDPELPYMRPPLSKELWFSDDPNVTKTLQFRQWNGKERSIYFQPPSFYVSAQDLPNIENGGVAVLTGKKVVHLDVRGNMVKLNDGSQITFEKCLIATGGTPRSLSAIDRAGAEVKSRTTLFRKIGDFRALEKISREVKSITVIGGGFLGSELACALGRKSQASGIEVIQLFPEKGNMGKILPQYLSNWTMEKVKREGVKVMPNAIVQSVGVSGGRLLIKLKDGRKVETDHIVTAVGLEPNVELAKTGGLEIDSDFGGFRVNAELQARSNIWVAGDAACFYDIKLGRRRVEHHDHAVVSGRLAGENMTGAAKPYWHQSMFWSDLGPDVGYEAIGLVDSSLPTVGVFAKATAQDNPKSATEQSGTGIRSESETESEASEITIPPSAPAVPQVPVEGEDYGKGVIFYLRDKVVVGIVLWNVFNRMPIARKIIKDGEQHEDLNEVAKLFNIHED | soluble |
| MKLIRGIHNLSQAPQEGCVLTIGNFDGVHRGHRALLQGLQEEGRKRNLPVMVMLFEPQPLELFATDKAPARLTRLREKLRYLAECGVDYVLCVRFDRRFAALTAQNFISDLLVKHLRVKFLAVGDDFRFGAGREGDFLLLQKAGMEYGFDITSTQTFCEGGVRISSTAVRQALADDNLALAESLLGHPFAISGRVVHGDELGRTIGFPTANVPLRRQVSPVKGVYAVEVLGLGEKPLPGVANIGTRPTVAGIRQQLEVHLLDVAMDLYGRHIQVVLRKKIRNEQRFASLDELKAQIARDELTAREFFGLTKPA | soluble |
| MSLGCTNFIQVGTVLGAPNVFLIGDAREVGHQGYENILREAKKVLTFDLDEKLRGFKNIVVYPGTFDFEGIVKNLDSDAKITVDIAYDVNDADELSRVYGASHALAISTSSELFSSLALENLGPLLKACKTRSAKHLLLKENRGGSRLFDLESGESWEIPATLARTVNSVGVGDVYTAVFAALIDHGALTAALRGMQAATRYAQTTFPDDFKRDVQRDFKLTPDEVLSLGGVLLPWHDRPHFEIYLAAPDFSYMEKAEVDAAVEALLYHNFTVRRPVQDNGEACPGTPAEDLRSYYDRDVELLRRCSLVFAVPLNRDPGTLVEIGLAIAAGTPVVTYDPRQENNNTMVICGSDAYSDDLDQCLNSTFELLAKLREQAKEGHHHHHH | not soluble |
| MTEIYEQAKHSLQGEDFSSFNYLFAVNKLLSNPVSYDLGRDLIVRALDSRERFSEHTTILKNMVRKSGLFPYLKKEFTSLTPDDLRVLELYRTPFSDGYVFHSMQFHIFDLLKSGQNVVLSAPTSMGKSAIVDSLLGMGTLKRLVLVVPTVALADETRRRLQERFGDRYQIIHHSSQVCHSDQAVYVLTQERVNERDDIVDIDLFVIDEFYKLAFRQLKSGDIDHQDERVIELNIALSKLLKVSRQFYLTGPFVNSIRGLEKLGYPHTFVSTDFNTVALDVKTFGIKANDDKAKLKALGEIAHACVDATIIYCKSPTVAGLVARELIRLGHGTPTENPHVDWVSEEFDADWDYTVALRNGIGLHFGALPRALQQYTADQFNAGKLRFLLCTSTIIEGVNTIAKNVVIYDNRDGTRSIDKFTHGNIKGRAGRMGVHFVGKIFCLEEIPEDNLNQEVDIPLGIQGIDTPINLLASVQPDHLSEFSQDRFDEVFINDRVSIDLVKKHSYFRVEQFEMLQSMFEMMDDNEFSSLVFHWTPATNFLKTFAKIIARLVPHTFSRNGVPVKPTDVMIAKLAGYLSAESYSEYLKNQIDYARQWISEGEKRTLSIALNNDLKLITNTFGYTLPKVLSLMEDVVKHHAVKRGIRSKVDYTHVKLAFESFHLPPGVNALEEIGIPIQTLHRLVDLLEFSDEADVDELSQYLRDTQDIWSRSIGYVDQMFIRRALGIRRH | not soluble |
| GPGSMESQKRMMWNLKGRSAVAALDPSTRHRIMQSHAMASSFHKPLLATLEVLITPQYVGGLTGPLQKPEPFICHVTRLLQITPDPSIVLAMLHQDVHKYLRVAALFIIRLIGNEAMMREAMRVGWEDYRKIRVYGYVEDLAGTIDSKENNAPDEEEGFVRAPAYGIMCVDEITDRLFNVGESDINKNGGSGNLWLGLRLPPILL | not soluble |
| MSRTQFEPAETYTAYTAYDEAYEAHEAYEAHEAYEAHETYERPAPYDLHSAPTLPYGGTYPSAPPPVHEPTVPALPRQSDGRAERRRRARGAGRADASLRRLVPRALVVAFLAGGTTAFVAKDKAVELTVDGSPRTLHTFADDVSELLAEEGVQVGAHDVIAPAPGTPLTSGEDVTVHHGRPVLLTLDGHRRQVWTTAGTVAGALRQLGVRTQGAYLSTGPSRRIGREGLALVVRTERVVTVMADGRTRTVRTNAATVGEVVEEAGITLRGEDTTSVPATGFPRDGQTVTVLRITGSQEVREDPIPFDERRAEDASLFRGTEVVQEAGRPGLRRTTYALRTVNGVRQKPRRLRTEVVREPSPRIVRVGTRPRPASVHGADHLNWQGLAACESGGRADAVDPSGTYGGLYQFDSATWHGLGGEGRPEDASAAEQTYRAQKLYVRSGADAWPHCGARLRELEHHHHHH | not soluble |
| MLTLIQGKKIVNHLRSRLAFEYNGQLIKILSKNIVAVGSLRREEKMLNDVDLLIIVPEKKLLKHVLPNIRIKGLSFSVKVCGERKCVLFIEWEKKTYQLDLFTALAEEKPYAIFHFTGPVSYLIRIRAALKKKNYKLNQYGLFKNQTLVPLKITTEKELIKELGFTYRIPKKRL | soluble |
| MWTEQHVKEIDSIIRKKEDEQLSLPIMEQKLQINNRRYLGSKYKLLEFICKVVRENCTSVSSVADIFGGTGVVADRFNKEGKDIIVNDILYSNYLAYLTWFSNEKVNITKIEKLIKFFNESEPTEDNYVSINFGGTYFTEYNARKIGYVREEIEKMSDELNAREKAILITSLIYAMDKVANTVGHYDAYRRKLDSIKEIKLLMPEFNDGLNNGNKIFKEDANELVRKISADLIYIDTPYNSRQYGDAYHLLENIAEWEKPDLVGVAKKMIDRSHIKSDYCTMKATSAFADLISNIKGKYILVSYNNMAQKGVGRSNAKISSEEIVEILETRGTVEIFETNFQAYTTGKTNIDDHKEILYLCEVSR | not soluble |
| MAHHHHHHMECVELTPSESGTINRRGAIPANLAGNSYYARRYSTQGGTRRGTLDATEPHVQFRSGDLVLQLCLSAVPRELSHKRIVDVTGIQTSFHNVSERQSKALATVEEAMQTMHLHDGHEVPALQRGDVNLVRLQPRCVYISPPPSHSFAAGEAVAVDLRHLSSALRPLSNPYVLLAQTRRLSFRSEMEAVQTAQVMASFLTELRGGGAVSEGCGSSVGVFGSAAVLRPVVRDGHLVAMTLCPPRDTARGCRRR | not soluble |
| MRLALAVLILLLSIAPAMALCSYEVVEERYADPFTVDISSMPSLKDLPVDDPSDGIDWVKVPLPKPCVNGMGKDTFIMVRKGSSNNLLIFFEGGGACADYETCKPMLCTDLKSCKPLLGIGSVVALESNFCFLKLYYRGGIFDVKKAENPFRDWTIVFVPYNTGDLHMGNRVVRYFDDGKEKTIYHVGYVNAIVAMRWIKENGNFDRIVVAGSSAGGYATLLHGYTAWSIFGKPVTVINDAGPGINPDSDSKFQVNEIMERWGSKQNFPPEALQYFEGKDPAYAIEYFLDKCSDCVYGFFEDQKDLVIGSVFSAYWPWQFKTRLLKVTDELRDYSDRYCRFLPYDYQHTVLTGGLLYPLQKDRFYCEKVGGYRVYEWVKELLRGNCVDLVELEHHHHHH | not soluble |
| MNTRTWFVLLCLALPLVSLQAQPHPQTEQTSPALSEHTEMDHTEMNHTEMDHTEMDHTEMDHTEMDHTQMDHTQMDHTQMDHAIHGATTQFAGDGSLPPPSAAALAAAFPPLRHRAAHAPPLVSLVRIDRLETWNADPGRGHAWATQAWIGSDIQRLWLRSQGECYGGRCQSVAVEMLYGHDISPWWDALIGARRDVQPDGRTWAALGVQGVAPYKFESAAFLYLSGAAMRLMVETKYDLLLSQRLILQPSLQATAGLTRDRDLGAGPQTLQVGIRMRYQITRRVAPYVGWEREYGYGESGRQARARGTSDHEKRWVAGIRCWFLEHHHHHH | soluble |
| MVPPNDEIEDGFYLIDDSNHDEDLDFSDFPWLDPDHPLFFPATQANNSKGSTRWDAVNKFSVENWYPHLRKHTFKSHFITLNYNDIHYLMGNIPPDYDSSKLESIFNKILSEFNNKEVFMRLSTRSPKDSKFLFEEASTIMSKDFVYWNENDNKHQQLVSFVASMLKAMKIKSGRKIIETIAQSPRVYNDLLALVSSSNQSDCTTNVILREWHDIRPDHEFRVFVSRRHRKESIVTAISQYFHFLYFDKSPADCFNFLDEEDKKAVIKKFENYVLKSVDPDVAKFLNFSSEQDDDESSDCIREYIVDLALIPVSQYHGEITDENIIEIGANTYVMVVIELNPFAPAATGSGLFNWKNDLEHHHHHH | soluble |

Source: the DeepSol protein solubility set
